Source: PMC3990689, “Identification and Characterization of ABA Receptors in Oryza sativa” (PLoS ONE, 2014)

Assays:
[1] = target: OsPYL1 (Oryza sativa (japonica cultivar-group)); assay: static light scattering; DAWN HELLOS II (Wyatt) at 18°C; OsPYLs about 2 mg/mL; calibrated with albumin monomer standard; oligomerization state
[2] = target: OsPYL1 (Oryza sativa (japonica cultivar-group)); assay: SEC; Superdex-200 HR10/300 GL, 25 mM HEPES pH 7.0, 150 mM NaCl; 500 µL OsPYL (OD280 = 0.75) applied; oligomerization state
[3] = target: OsPYL1 (Oryza sativa (japonica cultivar-group)); assay: AUC; sedimentation velocity at 4°C, 40,000 rpm; OsPYL proteins at OD280 = 0.75; absorbance at 280 nm; oligomerization state
[4] = target: T1, OsPYL11 (with OsPP2C09) (Oryza sativa, UniProt Q6I5C3); assay: Ser/Thr phosphatase assay, inhibition of OsPP2C09 by receptor; assay type: biochemical; details: ABA ten fold of OsPYL; OsPP2C09 1.8 µM; read at 630 nm
T1 construct: gene PYL5; recombinant, E. coli BL21(DE3), pET-15b; OsPYL11 monomer; equals OsPYL/RCAR5 of earlier work; with Probable protein phosphatase 2C 9
T1 sequence (Q6I5C3 1-209): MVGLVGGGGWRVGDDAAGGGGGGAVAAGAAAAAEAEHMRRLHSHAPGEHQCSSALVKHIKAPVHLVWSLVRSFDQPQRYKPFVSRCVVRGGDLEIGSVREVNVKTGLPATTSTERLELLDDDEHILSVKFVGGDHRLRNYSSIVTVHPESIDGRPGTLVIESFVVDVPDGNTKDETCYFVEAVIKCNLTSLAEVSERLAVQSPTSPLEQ
T1 sequence (Q5N9N2 1-414 partner): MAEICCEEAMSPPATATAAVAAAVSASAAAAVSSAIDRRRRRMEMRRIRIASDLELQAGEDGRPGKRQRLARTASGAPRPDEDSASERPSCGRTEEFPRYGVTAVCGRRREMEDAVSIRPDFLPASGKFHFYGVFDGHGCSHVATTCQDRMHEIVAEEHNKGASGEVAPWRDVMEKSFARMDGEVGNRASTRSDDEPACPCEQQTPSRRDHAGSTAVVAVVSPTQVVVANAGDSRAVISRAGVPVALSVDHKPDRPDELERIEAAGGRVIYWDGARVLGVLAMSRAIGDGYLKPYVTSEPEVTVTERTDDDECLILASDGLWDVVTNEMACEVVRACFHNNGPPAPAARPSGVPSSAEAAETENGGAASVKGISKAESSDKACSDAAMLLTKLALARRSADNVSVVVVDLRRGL

[5] = target: T2, OsPYL2 (Oryza sativa, UniProt Q5Z8S0); assay: isothermal titration calorimetry; assay type: binding
T2 construct: gene PYL9; recombinant, E. coli BL21(DE3), pET-15b, Ni-NTA; mainly dimer; residues named: K74, F76, V98, L102, P103, A104, S107, E109, V125, L132, E162, F180, V184, N188
T2 sequence (Q5Z8S0 1-207): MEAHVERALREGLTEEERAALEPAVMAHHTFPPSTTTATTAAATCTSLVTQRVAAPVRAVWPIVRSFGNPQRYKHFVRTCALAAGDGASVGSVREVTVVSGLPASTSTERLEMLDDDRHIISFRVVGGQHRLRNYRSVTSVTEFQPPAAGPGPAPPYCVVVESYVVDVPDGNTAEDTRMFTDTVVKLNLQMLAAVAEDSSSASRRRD

[6] = target: OsPYL12 (Oryza sativa (japonica cultivar-group)); assay: static light scattering; DAWN HELLOS II (Wyatt) at 18°C; OsPYLs about 2 mg/mL; calibrated with albumin monomer standard; oligomerization state
[7] = target: OsPYL12 (Oryza sativa (japonica cultivar-group)); assay: SEC; Superdex-200 HR10/300 GL, 25 mM HEPES pH 7.0, 150 mM NaCl; 500 µL OsPYL (OD280 = 0.75) applied; oligomerization state
[8] = target: OsPYL12 (Oryza sativa (japonica cultivar-group)); assay: AUC; sedimentation velocity at 4°C, 40,000 rpm; OsPYL proteins at OD280 = 0.75; absorbance at 280 nm; oligomerization state
[9] = target: the molecule itself; assay: SEC; Superdex-200 HR10/300 GL, 25 mM HEPES pH 7.0, 150 mM NaCl; 500 µL OsPYL (OD280 = 0.75) applied; oligomerization state

Question: What does the source list for OsPYL1 (receptor)?
Answer: stoichiometry N [1]: 2; stoichiometry N [2]: 2; stoichiometry N [3]: 2

Question: With `CC1=CC(=O)CC(C)(C)C1(O)/C=C/C(C)=C\C(=O)O` (stereo in doubt) [(+)-ABA] as the molecule, how does the “Ser/Thr phosphatase assay, inhibition of OsPP2C09 by receptor” value [4] read?
Answer: in the presence of ABA, all of the OsPYLs proteins could completely inhibit

Question: What about the Kd [5] of the same molecule?
Answer: ~31.3 µM

Question: OsPYL12 (receptor) was tested. Which stoichiometry N [6] did it give?
Answer: 2

Question: And the stoichiometry N [7]?
Answer: 2

Question: What about the stoichiometry N [8] of the same molecule?
Answer: 2

B1: OsPYL3 (receptor)
chain: ERGRGGVGAEDARGGADEVAARERLEGVVRAHHTFPAAERAAGPGRRPTCTSLVAQRVDAPLAAVWPIVRGFANPQRYKHFIKSCELAAGDGATVGSVREVAVVSGLPASTSTERLEILDDDRHVLSFRVVGGDHRLRNYRSVTSVTEFSSPSSPPRPYCVVVESYVVDVPEGNTEEDTRMFTDTVVKLNLQKLAAVATSSSPPAAGNHH
Question: With B1 as the molecule, how does the “stoichiometry N” value [9] read?
Answer: 2

B2: OsPYL2 (receptor, Oryza sativa (japonica cultivar-group))
chain: T2 sequence (Q5Z8S0 1-207)
notes: OsPYL2, ABA receptor (PYR1/PYL/RCAR ortholog) of Oryza sativa (japonica cultivar-group); Dimer when alone in solution (SEC, SLS, AU); stands with OsPP2C06 and ABA in the crystallised ternary complex; source: E. coli BL21 (DE3), vector pET-15b, purified (Ni-NTA, Source-15Q, Superdex-200); for the complex coexpressed with His6-OsPP2C06 (132-467) in E. coli BL21 (DE3) and purified with 0.2 mM (+)-ABA
Question: How did the “stoichiometry N” value [9] turn out when B2 was run?
Answer: 2
